Two molecules from patent publication US20210253731A1 (BETH ISRAEL DEACONESS MEDICAL CENTER, published 2021) can be followed below.

One experiment deals with T1, human CD39 (human, UniProt P49961 38-478, limits assumed).
T1 construct: Target as named in the general statements on 5F2 and PB1-PB5 specificity; also called hCD39; ectonucleoside triphosphate diphosphohydrolase-1
T1 sequence (looked up): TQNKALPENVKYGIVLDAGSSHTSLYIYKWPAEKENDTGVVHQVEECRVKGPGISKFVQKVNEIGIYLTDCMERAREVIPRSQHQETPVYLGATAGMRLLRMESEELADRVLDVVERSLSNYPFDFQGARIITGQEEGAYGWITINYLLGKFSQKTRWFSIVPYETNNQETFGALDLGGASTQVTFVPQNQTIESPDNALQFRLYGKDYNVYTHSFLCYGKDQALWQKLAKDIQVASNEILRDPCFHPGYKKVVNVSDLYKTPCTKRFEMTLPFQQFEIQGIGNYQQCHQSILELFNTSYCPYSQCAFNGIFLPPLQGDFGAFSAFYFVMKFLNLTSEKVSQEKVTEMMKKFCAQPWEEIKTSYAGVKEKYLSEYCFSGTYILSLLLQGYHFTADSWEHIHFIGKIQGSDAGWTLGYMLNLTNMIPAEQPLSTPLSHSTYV
In words: assay not described.

A further experiment concerns the target T2, mouse CD39 (mouse, UniProt P55772 38-478, limits assumed).
T2 construct: Target as named in the general statement on 5F2 specificity; also called mCD39
T2 sequence (looked up): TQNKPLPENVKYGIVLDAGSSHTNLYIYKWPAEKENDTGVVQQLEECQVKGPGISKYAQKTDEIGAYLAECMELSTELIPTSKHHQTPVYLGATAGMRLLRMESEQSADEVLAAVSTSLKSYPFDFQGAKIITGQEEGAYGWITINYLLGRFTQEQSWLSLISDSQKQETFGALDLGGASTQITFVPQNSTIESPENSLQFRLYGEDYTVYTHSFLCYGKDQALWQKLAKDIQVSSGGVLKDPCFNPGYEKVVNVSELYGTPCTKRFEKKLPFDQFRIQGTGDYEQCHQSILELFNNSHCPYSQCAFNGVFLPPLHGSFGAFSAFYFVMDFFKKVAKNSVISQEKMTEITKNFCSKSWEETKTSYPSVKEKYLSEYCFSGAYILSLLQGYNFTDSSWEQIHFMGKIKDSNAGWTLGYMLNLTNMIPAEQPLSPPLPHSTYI
In words: assay not described.

B1: PB4 rabbit monoclonal anti-human CD39 antibody (antibody, V domains shown)
VH: QEQLVESGGGLVQPEGSLTLTCTASGFSFSSSYYMCWVRQAPGKGLEWIGCIYIGSSTTYYATWAKGRFTISKTSSTAVTLQMTGLTAADTATYFCARDQYDDSGNLWGPGTLVTVSS
VL: DVVMTQTPASVSEPVGGTVTIKCQASQSIYSGLAWYQQKPGQPPNLLIYKASNLASGVSSRFKGSRSGTEYTLTISDLECADAATYYCQNWYGISSYGRAFGGGTEVVVKG
notes: Full rabbit heavy and light chains
In the case of B1, in the experiment with human CD39, the binding result was “binds”.

B2: murine monoclonal 5F2 (anti-CD39 antibody) (antibody, V domains shown)
VH: EVQLEESGPGLVQPSQRLSITCTISGFSLTSYGIHWVRQSPGKGLEWLGVIWSGGNTDYNAAFISRLSISKDNSKSQVFFKMNSLQVGDTATYYCARNGHGSNIPWFVYWGQGTLVTVST
VL: DIQLTQSPASLSVATGEKVTIRCITSTDVDDDMNWFQQKPGEPPNLLISEGDTLRPGVPSRFSSSGYGTDFVFTIENTLSEDVADYYCLQSDNMPLTFGGGTKLEIK
notes: also called anti-CD39 5F2 antibody; 5F2 mAb
For the molecule B2, the binding result in the experiment with mouse CD39 and with human CD39 was “binds” each time.
